Source: paper PMC3678023 (Journal of Molecular Biology, 2013)

B1: wild-type SERT: rat serotonin transporter, wild type (protein, UniProt P31652 1-630, looked up)
Sodium-dependent serotonin …: METTPLNSQKVLSECKDREDCQENGVLQKGVPTTADRAEPSQISNGYSAVPSTSAGDEASHSIPAATTTLVAEIRQGERETWGKKMDFLLSVIGYAVDLGNIWRFPYICYQNGGGAFLLPYTIMAIFGGIPLFYMELALGQYHRNGCISIWRKICPIFKGIGYAICIIAFYIASYYNTIIAWALYYLISSLTDRLPWTSCTNSWNTGNCTNYFAQDNITWTLHSTSPAEEFYLRHVLQIHQSKGLQDLGTISWQLTLCIVLIFTVIYFSIWKGVKTSGKVVWVTATFPYIVLSVLLVRGATLPGAWRGVVFYLKPNWQKLLETGVWVDAAAQIFFSLGPGFGVLLAFASYNKFNNNCYQDALVTSVVNCMTSFVSGFVIFTVLGYMAEMRNEDVSEVAKDAGPSLLFITYAEAIANMPASTFFAIIFFLMLITLGLDSTFAGLEGVITAVLDEFPHIWAKRREWFVLIVVITCVLGSLLTLTSGGAYVVTLLEEYATGPAVLTVALIEAVAVSWFYGITQFCSDVKEMLGFSPGWFWRICWVAISPLFLLFIICSFLMSPPQLRLFQYNYPHWSIVLGYCIGMSSVICIPTYIIYRLISTPGTLKERIIKSITPETPTEIPCGDIRMNAV

Tests used:
[1] = system: thermostabilised SERT mutants SAH6 and SAH7; experiment: Competition binding, statements covering both thermostabilised mutants; set-up: species or system rat; details: over SAH6 and SAH7
Method: The samples were incubated for 2 h at 30 °C and then filtered on 96-well glass fibre plates (Millipore) pre-treated with 200 μl of 0.1% polyethyleneimine. The filters were washed three times with 200 μl ice-cold SERT buffer [100 mM NaCl and 20 mM Tris (pH 7.4)], dried for 1 h at 50 °C prior to liquid scintillation counting. Competition binding assays were performed as above, but a range of concentrations of unlabelled ligand was included and a final concentration of 0.2 nM [^125I]RTI55 was used.

[2] = Protocol: Thermostability assays usually involved adding the radioligand to detergent-solubilised membrane proteins,[9] but the only detergent that SERT was stable in was digitonin,[34] which is unsuitable for crystallography. Therefore, a different assay where an inhibitor was used to stabilise the transporter was developed. This entailed adding [^125I]RTI55 to the T-REx-SERT cells followed by detergent solubilisation and then the thermostability assay (heating samples at various temperatures for 30 min). The apparent Tm was defined as the temperature where 50% of the transporter still bound the radiolabelled inhibitor (Fig. S2).
The thermostability of detergent-solubilised [^125I]RTI55-bound SERT was determined as previously described for GPCRs.[5,6,8,9] Briefly, cells containing unpurified SERT were incubated with 1 nM [^125I]RTI55 for 30 min on ice, which were then solubilised with detergent on ice for 30 min before incubation at varying temperatures for 30 min. The radioligand bound to the membrane protein was separated from free radioligand by centrifugal gel filtration and the radioligand bound to the eluted transporter measured by liquid scintillation counting.

[3] = system: T-REx-293 cells expressing SAH6-GFP, SAH7-GFP or SERT-GFP; experiment: [3H]5HT uptake assay in stable T-REx cell lines; type: cell-based; details: tetracycline-induced stable cell lines, 2 μM [3H]5HT, 25 °C, 3 min
Text: [^3H]5HT was released by rupturing the cells with 2% SDS, which was quantified by liquid scintillation counting.

Row | Molecule | Lower affinity versus wild-type transporter [1] | Apparent Tm ([2]; [125I]RTI55-bound, solubilised in 0.1% DDM, heated 30 min) | Transporter remaining functional after heating ([2]; single-temperature assay, 28 °C for 30 min) | [3H]5HT transport [3]
1 | ibogaine | up to 90 fold | – | – | –
2 | B1 | – | 28 °C | approximately 40% | robust transport
